Patent publication US20100233154A1, “TARGETED BINDING AGENTS DIRECTED TO HEPARANASE AND USES THEREOF 463” (MedImmune Limited, priority 2008, published 2010)

Columns and labels:
MCF7-Hpa1#19 xenograft = experiment: Subcutaneous xenograft tumour growth, MCF7-Hpa1#19; format: in vivo, SCID mice; settings: once weekly i.p.; 10E9.1 at 7.5 or 15 mg per kg
Method: MCF7-Hpa1#19 and HCT116 tumour cells were harvested from sub-confluent cultures. A total of 5×10^6 (MCF7-Hpa1#19) or 10^7 (HCT116) tumour cells were inoculated subcutaneously into the flank of male SCID mice. HCT116 tumour cells were implanted in PBS; […] cells were implanted in PBS containing 50% matrigel.
When tumours had attained ˜200 mm^3, tumour bearing mice were randomised into treatment groups and dosed with the following; PBS; an isotype matched control IgG2 antibody, 15 mg per kg; anti-heparanase antibody 10E9.1, 7.5 or 15 mg per kg. All treatments were administered once weekly i.p. Tumour growth was measured twice per week using calipers and tumour volumes calculated according to an ellipsoid volume is formula (3.142/6×length×width×width) from measures of the largest tumour diameter and two opposing widths (FIG. 11).

[1] = test system: precursor (65 kDa) and active (50 kDa) heparanase; experiment: Immunoprecipitation and Western blotting of heparanase from cell lysates; format: binding, human; settings: 10 μg antibody, 400 μg lysate, MCF7 and MDA MB231 parental and heparanase transfected cells
Method: Briefly, protein lysates (400 μg in RIPA lysis buffer—137 mM NaCl, 20 mM Tris pH7.4, 10% glycerol, 1% Triton, 0.5% Sodium deoxycholate, 0.1% SDS, 2 mM EDTA, 1 mM dithiothreitol, 4 mM pefabloc, 10 mM glycerol-2-phosphate, 5 mM NaF and protease inhibitor cocktail) from both parental and heparanase transfected cells were incubated with 10 μg IgG2 control or anti-heparanase (10E9.1) antibodies for 1 hour at 4° C. Following immunoprecipitation with protein G agarose beads and washing with RIPA buffer, samples were separated on 10% bis-tris gels and transferred to nitrocellulose for Western blotting. Heparanase was detected using an anti-heparanase polyclonal antibody (Biochain Cat. No. Z5010104), that recognises both precursor and active heparanase.

[2] = test system: HCT116 human colorectal tumour cells; experiment: FACS binding to cell surface heparanase, HCT116; format: cell-based; settings: 5 or 10 μg per ml, 2 hrs at 37° C.
Method: Although heparanase is found as a secreted protein, a proportion of heparanase is found in conjunction with cell surface heparan sulfate. The ability of anti-human heparanase antibodies to bind to cell surface heparanase was tested in a FACS assay. HT1080 human fibrosarcoma cells, HCT116 human colorectal tumour cells and B16F10 AP3 murine melanoma cells were each seeded into 6-well plates and cultured for 48 hrs prior to the addition of anti-heparanase antibody 10E9.1 or control IgG2 antibody (Sigma Cat. No. 1504-1MG). Antibodies were added to the cells to a final concentration of 5 or 10 μg per ml and incubated with the cells for 2 hrs at 37° C. The cells were then washed with phosphate buffered saline (PBS) and harvested by incubation with trypsin. The cells were pelleted by centrifugation and resuspended in 0.5 ml PBS, 0.1% BSA containing 1/200 dilution of AlexaFluor 488 anti-human IgG. The cells were incubated for 1 hr at room temperature, washed with PBS/BSA, resuspended in PBS and analysed by FACS. […] The differences likely reflect a lower affinity for murine heparanase in addition to any differences in absolute heparanase expression.

human heparanase = target: T1, human heparanase (Homo sapiens, UniProt Q9Y251); experiment: Cross species capture ELISA, human heparanase; format: binding
T1 sequence (Q9Y251 36-543): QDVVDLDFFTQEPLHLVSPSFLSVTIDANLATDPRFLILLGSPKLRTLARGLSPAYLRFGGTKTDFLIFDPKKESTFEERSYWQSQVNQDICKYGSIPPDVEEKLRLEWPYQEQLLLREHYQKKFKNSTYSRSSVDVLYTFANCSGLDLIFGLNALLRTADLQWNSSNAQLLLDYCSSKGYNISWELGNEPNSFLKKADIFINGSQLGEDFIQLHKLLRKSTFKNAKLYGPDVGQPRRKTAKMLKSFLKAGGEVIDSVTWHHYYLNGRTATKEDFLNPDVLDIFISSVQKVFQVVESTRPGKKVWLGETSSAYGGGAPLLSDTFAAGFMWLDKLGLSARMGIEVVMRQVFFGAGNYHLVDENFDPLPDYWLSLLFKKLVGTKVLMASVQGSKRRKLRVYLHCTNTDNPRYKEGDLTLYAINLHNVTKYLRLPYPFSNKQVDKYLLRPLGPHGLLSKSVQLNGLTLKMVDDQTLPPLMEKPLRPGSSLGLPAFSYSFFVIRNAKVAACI
Method: Initially, cross species binding to human, murine and cynomolgus heparanase was determined in an ELISA assay in which heparanase was captured onto plates using a rabbit anti-heparanase antibody (Raybiotech, Cat. IP-14-155). Exhaustive supernatants were added to the plates at a final dilution of 1:5 and bound antibody detected with a rabbit anti-human IgG Fc.

MDA MB231-Hpa1#4 cells = experiment: Heparanase expression in cells cultured with antibody (Western blot); format: cell-based, human; settings: 25 μg per ml antibody, 72 hrs, compared to untreated or IgG2 control
Method: MDA MB231-Hpa1#4 cells were cultured in the presence of 25 μg per ml anti-human heparanase antibody or control IgG2 antibody (Sigma Cat. No. 1504-1MG) for 72 hrs. Following the removal of culture medium, protein extracts were prepared from the cells in 100 μl RIPA buffer and separated on […] gels and transferred to nitrocellulose as described above. Western blots were probed with an anti-heparanase antibody that detected only pro-heparanase (SantaCruz Cat. No. SC25825).

B1: 10E9.1: fully human anti-heparanase monoclonal antibody, G2κ; VH SEQ ID NO 2, VL SEQ ID NO 4; ATCC PTA-9489 (antibody, listed as Homo Sapiens, V domains shown)
VH: QVQLVQSGAEVKKPGASVKVSCKVSGYSLTELSIHWVRQAPGKGLEWMGGFDPEDGEIIFAQKFQGRVTLTEDISLDTAYMEVSSLRSEDTAVYYCATEGHDSGDYVGYYYYGLDVWGQGTTVTVSS
VL: DIQMTQSPSSLSASVGDRVTITCRASQDIRNFLAWYQQKPGKLPKLLIYAASTLQSGVPSRFSGSGSGTDFTLTISSLQPEDVASYYCQSHNSVPFTFGPGTKVDIR
notes: fully human anti-heparanase monoclonal antibody, G2κ; ATCC PTA-9489
B1 was tested, and the Tumour growth inhibition (MCF7-Hpa1#19 xenograft) was “not inhibited”, the “Immunoprecipitation of heparanase from cell lysates” value [1] was “immunoprecipitation of both precursor and active forms of heparanase” and the “Binding to cells by FACS” value [2] was “bind extensively”. For the same molecule, the “Binding to heparanase Human” value (human heparanase) was 0.63 OD units and the “Inhibition of heparanase expression” value (MDA MB231-Hpa1#4 cells) was “significant inhibition of heparanase expression”.
